The values below come from paper PMC3148273.

Substrate in the series: CCCCCCCCCCCCC/C=C/[C@@H](O)[C@@H](N)CO
Nature of the series: purified SK2 Michaelis-Menten kinetics with [γ-32P]ATP. The format is biochemical, Homo sapiens. The conditions noted are these: Mg2+.

B1: sphingosine kinase 2 (SK2) (Homo sapiens) (protein)
chain: MNGHLEAEEQQDQRPDQELTGSWGHGPRSTLVRAKAMAPPPPPLAASTPLLHGEFGSYPARGPRFALTLTSQALHIQRLRPKPEARPRGGLVPLAEVSGCCTLRSRSPSDSAAYFCIYTYPRGRRGARRRATRTFRADGAATYEENRAEAQRWATALTCLLRGLPLPGDGEITPDLLPRPPRLLLLVNPFGGRGLAWQWCKNHVLPMISEAGLSFNLIQTERQNHARELVQGLSLSEWDGIVTVSGDGLLHEVLNGLLDRPDWEEAVKMPVGILPCGSGNALAGAVNQHGGFEPALGLDLLLNCSLLLCRGGGHPLDLLSVTLASGSRCFSFLSVAWGFVSDVDIQSERFRALGSARFTLGTVLGLATLHTYRGRLSYLPATVEPASPTPAHSLPRAKSELTLTPDPAPPMAHSPLHRSVSDLPLPLPQPALASPGSPEPLPILSLNGGGPELAGDWGGAGDAPLSPDPLLSSPPGSPKAALHSPVSEGAPVIPPSSGLPLPTPDARVGASTCGPPDHLLPPLGTPLPPDWVTLEGDFVLMLAISPSHLGADLVAAPHARFDDGLVHLCWVRSGISRAALLRLFLAMERGSHFSLGCPQLGYAAARAFRLEPLTPRGVLTVDGEQVEYGPLQAQMHPGIGTLLTGPPGCPGREP
For B1, the Km was 10.5 µM.

Usually Km stands for the substrate concentration at which the rate is half of its maximum.
